The text below walks through data of patent publication US20200308290A1 (AbbVie / Abbott, published 2020).

Where a chain is given by its changes, count along the chain named. In names and notes the source's numbering stands.

Sequences and labels used below:
T1: CD25 (recombinant) (human, UniProt P01589 22-213, limits assumed)
T1 construct: bought protein; also called IL2-R alpha; IL2-Rα
T1 sequence (looked up): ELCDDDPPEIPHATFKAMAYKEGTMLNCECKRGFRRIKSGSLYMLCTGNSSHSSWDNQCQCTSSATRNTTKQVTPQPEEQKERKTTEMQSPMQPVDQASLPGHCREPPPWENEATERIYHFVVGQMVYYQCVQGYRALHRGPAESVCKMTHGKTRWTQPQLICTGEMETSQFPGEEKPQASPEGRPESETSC

T2: human CD25 (recombinant soluble) (human, UniProt P01589 22-240)
T2 construct: extracellular domain; bought protein; also called IL2-Rα; recombinant human IL2-Rα
T2 sequence (looked up): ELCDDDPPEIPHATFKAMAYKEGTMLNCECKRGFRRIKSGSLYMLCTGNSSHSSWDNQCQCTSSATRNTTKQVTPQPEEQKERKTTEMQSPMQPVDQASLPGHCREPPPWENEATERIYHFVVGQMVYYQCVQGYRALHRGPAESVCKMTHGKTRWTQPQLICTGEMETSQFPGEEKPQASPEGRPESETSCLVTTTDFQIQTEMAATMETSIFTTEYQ

T3: CD25 on Kit225/K6 cells (human, UniProt P01589 22-272)
T3 sequence (looked up): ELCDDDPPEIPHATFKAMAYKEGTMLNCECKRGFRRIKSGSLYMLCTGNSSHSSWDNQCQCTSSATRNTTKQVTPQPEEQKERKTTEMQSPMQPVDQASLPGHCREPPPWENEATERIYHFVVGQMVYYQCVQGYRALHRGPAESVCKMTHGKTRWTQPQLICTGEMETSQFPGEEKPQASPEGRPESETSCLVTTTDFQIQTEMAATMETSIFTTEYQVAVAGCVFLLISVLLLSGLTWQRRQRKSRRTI

T4: human CD25 (human, UniProt P01589 22-213, limits assumed)
T4 construct: Recombinant soluble human CD25, coated on plates (ELISA) or injected over captured antibody (BIAcore); also called hCD25; IL2-R alpha
T4 sequence (looked up): T1 sequence (looked up)

B1: Variant C50 (antibody, V domains shown)
VH: QVQLVQSGAEVKKPGSSVKVSCKASGYTFTSYRMHWVRQAPGQGLEWMGYISPNSGYTEYNQKFKDKATITADESTNTAYMELSSLRSEDTAVYYCARGGGVFDYWGQGTLVTVSS
VL: DIQMTQSPSTLSASVGDRVTITCSASSKISYMHWYQQKPGKAPKLLIYTTSDLASGVPARFSGSGSGTEFTLTISSLQPDDFATYYCHQRSTYPLTFGQGTKVEVK
B2: Variant C54 (antibody, V domains shown)
VH: B1 VH with N54R, Y57R
VL: B1 VL
B3: Variant C47 (antibody, V domains shown)
VH: B1 VH with S52R, N54K, S55K
VL: B1 VL
B4: Variant C46 (antibody, V domains shown)
VH: B1 VH with S52K, N54K
VL: B1 VL
B5: Variant C45 (antibody, V domains shown)
VH: B1 VH with N54K
VL: B1 VL
B6: Variant C44 (antibody, V domains shown)
VH: B1 VH with N54K, S55K
VL: B1 VL
B7: Variant C55 (antibody, V domains shown)
VH: B1 VH with N54K, S55K, Y57R
VL: B1 VL
B8: Variant C59 (antibody, V domains shown)
VH: B1 VH with S52R, N54K, Y57R
VL: B1 VL
B9: Variant C51 (antibody, V domains shown)
VH: B1 VH with S52K, S55K
VL: B1 VL
B10: Variant C49 (antibody, V domains shown)
VH: B1 VH with S55K
VL: B1 VL
B11: Variant C48 (antibody, V domains shown)
VH: B1 VH with S52R, N54K
VL: B1 VL
B12: Variant C53 (antibody, V domains shown)
VH: B1 VH with N54R, S55K, Y57R
VL: B1 VL
B13: Variant C61 (antibody, V domains shown)
VH: B1 VH with Y57R
VL: B1 VL
B14: Variant C60 (antibody, V domains shown)
VH: B1 VH with S55K, Y57R
VL: B1 VL
B15: Variant C52 (antibody, V domains shown)
VH: B1 VH with S52K
VL: B1 VL
B16: Variant C63 (antibody, V domains shown)
VH: B1 VH with S52K, Y57R
VL: B1 VL
B17: Variant C57 (antibody, V domains shown)
VH: B1 VH with S52K, N54K, Y57R
VL: B1 VL
B18: Variant C62 (antibody, V domains shown)
VH: B1 VH with S52K, S55K, Y57R
VL: B1 VL
B19: daclizumab variant S77 (antibody, IgG1, name in Kabat numbering, V domains shown)
VH: B1 VH with S52N, N54S, S55T
VL: B1 VL with K28S, D52N
notes: IgG1; Kabat positions; also called I48M; DAC I48M
B20: SRK-SE (antibody, IgG1, name in Kabat numbering, V domains shown)
VH: B1 VH with M48I, N54R, S55K
VL: B1 VL with K28S, D52E
notes: IgG1/kappa; also called S52R53K54 VH with S29E53 VL
B21: VRR-SE (antibody, IgG1, name in Kabat numbering, V domains shown)
VH: B1 VH with M48I, S52V, N54R, S55R
VL: B1 VL with K28S, D52E
notes: IgG1/kappa; also called VRRE-SE
B22: RNR-SE (antibody, IgG1, name in Kabat numbering, V domains shown)
VH: B1 VH with M48I, S52R, S55R
VL: B1 VL with K28S, D52E
notes: IgG1/kappa
B23: NST-RN (antibody, IgG1, V domains shown)
VH: B1 VH with M48I, S52N, N54S, S55T
VL: B1 VL with K28R, D52N
B24: T50A (antibody, IgG1, V domains shown)
VH: B1 VH with M48I, S52N, N54S, S55T
VL: B1 VL with K28S, T49A, D52N
B25: Y32A (antibody, IgG1, name in Kabat numbering, V domains shown)
VH: B1 VH with M48I, S52N, N54S, S55T
VL: B1 VL with K28S, Y31A, D52N
B26: S31A (antibody, IgG1, V domains shown)
VH: B1 VH with M48I, S52N, N54S, S55T
VL: B1 VL with K28S, S30A, D52N
B27: RKT-SE (antibody, IgG1, name in Kabat numbering, V domains shown)
VH: B1 VH with M48I, S52R, N54K, S55T
VL: B1 VL with K28S, D52E
B28: Variant C26 (antibody, name in Kabat numbering, V domains shown)
VH: B1 VH with M48I, S52K, N54S, S55R, E74K
VL: B1 VL with K28S, D52E
notes: Isotype as printed: G1 fa; E to K read as E73K
B29: Variant C15 (antibody, name in Kabat numbering, V domains shown)
VH: B1 VH with M48I, S52V, N54R, S55R
VL: B1 VL with K28S, D52E
notes: Isotype as printed: G1 fa; also called VRR-SE
B30: Variant C19 (antibody, name in Kabat numbering, V domains shown)
VH: B1 VH with M48I, N54R, S55K
VL: B1 VL with K28S, D52E
notes: Isotype as printed: G1 fa; also called SRK-SE
B31: Variant C16 (antibody, name in Kabat numbering, V domains shown)
VH: B1 VH with M48I, S52R, S55R
VL: B1 VL with K28S, D52E
notes: Isotype as printed: G1 fa; also called RNR-SE

One assay deals with T5, cynomolgous monkey CD25 (cynomolgous monkey).
T5 construct: also called cmCD25; cm
The assay is described as follows: SPR (BIAcore), cynomolgous CD25. Background: Surface plasmon resonance follows binding to a sensor surface in real time, without labels.
On to B1, for which the Kd (in general, the free concentration of one partner at which half of the binding sites on the other are occupied at equilibrium, for simple one-to-one binding) amounted to 26 pM.
In the case of B2, binding was put at a Kd of 55 pM.
Regarding B3, the Kd was 100 pM.
In turn, B4 displayed a Kd of 11 pM.
B5 displayed a Kd of 55 pM.
On the same count and under the same terms, the same measure for B6: 42 pM; for B7: 49 pM.
B8 displayed a Kd of 50 pM.
As to B9, the Kd was 93 pM.
B10 registered a Kd of 7.9 pM.
In turn, B11 showed a Kd of 53 pM.
B12 had a dissociation constant Kd below 2.4 pM.
For B13, the affinity, expressed as Kd, was 55 pM.
Take B14: the Kd was below 2.3 pM.
Same read-out and setting: the same measure for B15: 75 pM.
In the case of B16, the Kd was 63 pM.
Molecule B17 came in with a Kd of 78 pM.
As for B18, the affinity, expressed as Kd, was 100 pM.

In another assay the target is T1, CD25 (recombinant). Nature of the assay: SPR (BIAcore).
For B19, the Kd was found to be 478 pM.

The next assay deals with T2, human CD25 (recombinant soluble). Nature of the assay: SPR (BIAcore), antibody captured, CD25 injected.
Take B20: the “Affinity improvement (KD normalized to wild type daclizumab)” value was 31 fold; the Kd was found to be 16 pM; the koff – broadly, a measure of how fast the partners let go of each other – was found to be 2.18e-05 s⁻¹; the kon (commonly the second-order rate constant of association) came out at 1.38e+06 M⁻¹ s⁻¹.
On the same counts, the results for B21 are 17 fold, 29 pM, 3.29e-05 s⁻¹ and 1.24e+06 M⁻¹ s⁻¹.
Taken in the same sequence, the figures for B22 were 23 fold, 22 pM, 3.34e-05 s⁻¹ and 1.54e+06 M⁻¹ s⁻¹.

The next assay deals with T3, CD25 on Kit225/K6 cells. The assay is described as follows: cell-based or functional assay.
Regarding B23, the “Functional improvement (inhibition of proliferation of Kit225/K6 cells; IC50 normalized to wild type daclizumab)” value worked out at 1.5 fold.
In the case of B20, the “Functional improvement (inhibition of proliferation of Kit225/K6 cells; IC50 normalized to wild type daclizumab)” value was 3.5 fold.
Turning to B21, the “Functional improvement (inhibition of proliferation of Kit225/K6 cells; IC50 normalized to wild type daclizumab)” value was determined as 1.2 fold.
Regarding B22, the “Functional improvement (inhibition of proliferation of Kit225/K6 cells; IC50 normalized to wild type daclizumab)” value amounted to 2.4 fold.
For B24, the “Functional improvement (inhibition of proliferation of Kit225/K6 cells; IC50 normalized to wild type daclizumab)” value turned out to be 0.8 fold.
Same read-out and setting: the same measure for B25: 0.4 fold; for B26: 0.7 fold; for B27: 2 fold.

Another assay addresses T5, cynomolgous monkey CD25. Nature of the assay: SPR (BIAcore), cynomolgous CD25. The source holds these as a separate data set.
Consider B1, for which the Kd amounted to 26 pM.
The molecule B2 came in with a Kd of 55 pM.
Same read-out and setting: the same measure for B3: 100 pM.
Molecule B4 registered a Kd of 11 pM.
With B5, the Kd stood at 55 pM.
Turning to B6, the Kd came out at 42 pM.
B7 showed a Kd of 49 pM.
B8 gave a Kd of 50 pM.
The molecule B9 registered a Kd of 93 pM.
B10: binding was put at a Kd of 7.9 pM.
B11 yielded a Kd of 53 pM.
B12 registered a Kd below 2.4 pM.
The molecule B13 had a Kd of 55 pM.
B14 yielded a Kd below 2.3 pM.
For B15, the Kd worked out at 75 pM.
On to B16, for which the Kd is 63 pM.
B17 gave a Kd of 78 pM.
For the molecule B18, binding was characterised by a dissociation constant (Kd) of 100 pM.

The next assay has as its target T4, human CD25. Nature of the assay: SPR (BIAcore).
The molecule B28 had a Kd of 121 pM.
In turn, B29 came in with a Kd of 29 pM.
B30: the Kd was 16 pM.
B31 gave a Kd of 22 pM.
